In publication PMC4949324:

How the values were obtained:
[1] = molecular target: T1, C1 R1092W (ZF10-13) (mouse, UniProt A2A5K6 845-1337, R1092W); assay: quantitative EMSA
T1 sequence: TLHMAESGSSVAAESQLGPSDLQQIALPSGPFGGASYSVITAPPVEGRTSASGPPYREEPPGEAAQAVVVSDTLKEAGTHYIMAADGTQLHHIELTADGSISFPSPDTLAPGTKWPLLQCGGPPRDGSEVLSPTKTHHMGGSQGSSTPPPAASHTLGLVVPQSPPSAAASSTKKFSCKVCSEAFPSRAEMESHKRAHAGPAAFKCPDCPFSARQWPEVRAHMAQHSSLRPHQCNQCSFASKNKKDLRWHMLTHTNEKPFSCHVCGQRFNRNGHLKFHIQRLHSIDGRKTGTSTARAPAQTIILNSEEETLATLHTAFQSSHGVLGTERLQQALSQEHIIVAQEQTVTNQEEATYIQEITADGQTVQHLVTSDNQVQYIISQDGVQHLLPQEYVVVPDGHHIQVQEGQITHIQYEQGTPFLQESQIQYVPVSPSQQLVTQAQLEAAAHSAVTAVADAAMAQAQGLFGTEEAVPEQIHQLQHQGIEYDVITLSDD

[2] = molecular target: T2, C1 WT (ZF10-13) (mouse, UniProt A2A5K6 845-1337); assay: quantitative EMSA
T2 sequence: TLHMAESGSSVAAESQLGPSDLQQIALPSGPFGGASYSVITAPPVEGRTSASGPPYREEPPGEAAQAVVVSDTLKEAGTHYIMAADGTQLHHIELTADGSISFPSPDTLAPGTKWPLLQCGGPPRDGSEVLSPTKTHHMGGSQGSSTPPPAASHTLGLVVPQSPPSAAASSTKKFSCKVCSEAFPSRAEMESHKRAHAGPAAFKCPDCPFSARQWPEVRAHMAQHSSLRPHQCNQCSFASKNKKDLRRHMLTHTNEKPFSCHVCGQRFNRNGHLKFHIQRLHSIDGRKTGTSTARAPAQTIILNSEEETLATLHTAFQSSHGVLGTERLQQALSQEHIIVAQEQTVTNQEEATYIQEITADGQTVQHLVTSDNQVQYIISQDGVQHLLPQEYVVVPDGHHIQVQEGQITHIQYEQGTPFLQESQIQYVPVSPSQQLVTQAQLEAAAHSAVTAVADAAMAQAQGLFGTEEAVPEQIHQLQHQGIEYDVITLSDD

B1: A2 (dsDNA)
DNA 1: AGTCCGACTCAGGACCCCGACCAAGCTG
DNA 2: CAGCTTGGTCGGGGTCCTGAGTCGGACT
- Kd [1]: 1410 ± 117 nM
- Kd [2]: 73.4 ± 7.1 nM
